{"source": "the DeepSol protein solubility set", "data": [{"assay": "soluble on expression in E. coli; label from the status in PepcDB or PDB records", "values": [{"sequence": "MLFRVRSETDSQPPFACLNDIKLFDTDNIGRGINAAILNGTTGDIIEKATFDVTASDEKLMTWLLKVPHASLLVAASFGDVAEHVSRQSRQLFAAFGAQKIDNWRVGNAYAIIGQRGIRRGEAHETVAKFLEENTQQKLFEGCFDLPIAEIGGEVELKIDGPPVHRADESKLAELGAFEADLLQQNKDVEYGGKWKNCGMDRPCNEADTIPVHFFSGEHKDDHPKMCIGGRMLFDKDLNSAGRGLNLAMLEPKTGKVTAVAHFDTYEDESHGLEEWLDAVPTGYIVAVVSFDEASNQLSDMARRIFYEMGSSMIDRLKFRASWYFVGQKGIGAYTPFEDLNIPQGNNWANPIHTSFCLPKSLHKWAGRRDTSSSMTSSASNDVRNLPKRHFCAKYDRHEEFCGAANLDSPIMPRHLSDEQRSSDAIFNVPILVASGLAPDSLRITLESLLNQEGLNTQMVLVTYDKEYSENADLVSLFHVKSVAIQSNGSYNGRKTSWKSEEIAENPMKIDRKPPGGLGNQKFVFLGHQFF", "soluble on expression in E. coli": "not soluble"}, {"sequence": "MLGACVEKPSTLERVKEDGVLRVVTRNSPATYFQDRNGETGFEYELVKRFADDLGVELKIETADNLDDLFDQLGQPKGPVLAAAGLVSSEQRKQQVRFSHPYLEVTPQVIYRNGRSRPTTAQDLVGKHIMVLKGSTHAEQLAELKLKYPGIEYEESDAVEVVDLLRMVDEGQIDLTLVDSNELAMNQVYFPNVRVAFDLGDARSQSWAVAAGDDNSLLNEINSFLDKVEKNGTLQRLKDRYYGHVDVLGYVGAYTFAQHLQQRLPKYEKHFKASAKQEKLDWRLLAAVGYQESMWQAEVTSKTGVRGLMMLTQNTAQAMGVSNRLDPKQSISGGAKYLAYIKEQLDDKIEEPDRTWFALAAYNVGTGHLDDARKLAEKEGLNPNKWLDVKKMLPRLSQKQWYSKTRYGYARGGEPVHFVANIRRYYDILTWVTQPQLEGDQVAEGNLHVPGVNKTKPPEENPPLLEHHHHHH", "soluble on expression in E. coli": "soluble"}, {"sequence": "MLGFNGERLDPASGAFHLGNGYRAYSPALMRFHCPDSLSPFGASGVNPYAYCAGDPANRADPSGHLSWQAWTGIGLAVASLALAAFTAGTSIIASGGIVAALESASAITLAEGGLAVVSDMTAIACGAMEASDPQAAAALSWVSLACGAMGMVHAGYGAVRGIDRKLGAFLQENSRFLGKITRGERDSLGIPLGGGLTKCFRPASEMEGASAGIALGRLHRSSSTPDMEAFLALPAAKRKRIGSGVSGVVYEAGRGWVVKIAIDPLPIETMEREAEIFRAVHGPRSALVAENMLWMKRIPGVPVNTLNLLADEKAEMWQKTLAEVKRLQEMGIHHGDPSWNNLLFDQQTGTVSFIDFGKSRYLDGFAPATLEHHHHHH", "soluble on expression in E. coli": "soluble"}, {"sequence": "MLGSPVAGAQVRVWQLDLDGQRKGREPLREAVTDDRGRFRIEMGAAHGNLLVESAGGETRELWSEEPLGLDPDVPLEAIIPLYIPVQHREIVVSPFTSVAAALVERRPVEPGRFHEAMQGVHALLGGHLGGIDILDAPVTPIDEPATQLTPGVRHGLLLGALSMLAGRMAEETGASVRGLNTMMLTAALREDARDESGLLDGVGPEGAIALGFCVDPPSGADTPLCRLSAQTLRQDLAETLAFHLLGSAQDGTGLSFGDGVVLANEVAQGTETALFGNVQPGNVGDERAPVITPLASPYYEESEDAIAFEDDLTPVHVRSEAARIDLSEVFENDCDREIHKHVDVLGAGDANPLRWRFAVKDDLAGFDVEDLLVQLRVPGVLAARPLAVTSVELPEGETAPGRVFEVFARERDAEELARVEGRYNIEIAATDRLGNTSPVLRGCWRHVPRAAPLWAGSFNAASGPGSFDERRLESNNLAPVLRGDQAPVLARLEVQNNTDEDVFLTLRADDIVGRYSATWTRSRVLLSEEEGMSDCLETGECFSAPPPDVVDEIIGLQPIPDSLVTLRVFDLATGVTPKCPNCRPNEVQIAAGGHFEVQAVVSNLAFLVPPSVNRTQIQEIQVGPIGAQVQLTGVDRRGYVHCEDTVPGSSLCRVRLSYQLFHALARATLQVDSLTISAVSSPLSTLAPRSPQPPLEGDNFTFSLPVSTAVTWTTEDASIPVSQ", "soluble on expression in E. coli": "not soluble"}, {"sequence": "MLGTIKPNYWIRKLSTKTSYGYRIDARAYVKVVRKTYHFLWKDSEEIVIFNPNADVGGLLYIGGLEHHHHHH", "soluble on expression in E. coli": "not soluble"}, {"sequence": "MLHFYQAVAQLMEHIRGAKAHDVRFTQPLADKPPFALIDWLDAQPIFPKFYWQSRDTREEVVALGQVYTFTDPAPAYAILGDEQRVWGGRSFDGHTAKNPRCMSSFFFLPQIELIRRDEQWLLAVNINNEPQRTLTALQKLLVEVPTLRSMTAHVTRVEHTPTAANWHDLVEKVLAGITEKQFKKVVLARKTTLTLDAPLSAAQLLKASHAQNHHSFHFLLALDSRHSFMGSTPERLYLRHGQNLETEALAGTIGRGANATQDMELAHWLTHDSKNLNENQLVVEDIIESLAPHAEQIHTQREAQLVRLRKVQHLKKRIDAQLKSGVNGVQLLGVLQPTAAVAGLPRQAALAFIAENEPFARGWYAGSMGYFSHAQAEFCVAIRSALVVDKQVQLYAGAGIVPGSIAEHEWQELDKKLSTLLSLITDRLPLGVAS", "soluble on expression in E. coli": "not soluble"}, {"sequence": "MLHLVLYQPEIPQNAGNVARTAAALGWPLHLIRPLGFLLSSPKLKRAGLDYWPHVDLRLHDSFAAFLEALPRGARVFAFSARGEASLYEARFREGDYLLFGPESRGLPEEVLARFPTLKIPMPGPVRSLNLAVAVGVAAYEAYRQLTGR", "soluble on expression in E. coli": "soluble"}, {"sequence": "MLIYEGHIDKLIRRGQEKGLDIYNLIRTAVFNPVEHYGLNVGLLREGDPADFIIVDNLKSFNILSTFIDGECVYENGKVLFPLEHHHHHH", "soluble on expression in E. coli": "not soluble"}, {"sequence": "MLKDEYGRVVTNLRIAVTKKCNLRCFYCHKEGESNPGEEISAERIVEIARAFKELGVRKLKITGGEPLLRKDLPDIILNLPEFEEISMTTNGILLEKYAEELRECGLSRVNVSLDTLDAEKYRWITGGGEVQKVVNGIEKACEVGLTPVKINMLVLGGVNDNEVDELLEFTNSFNRGNTKAILQVIELVPFPGFEKYFFDISTIEEKYARMATQRRVRAMHRRTQYFTPKGVIEFVKPMDNTAFCMHCNRMRVTSDGKLKPCLLRNETITIDGKHGEELARAIIETVRKREPYFKG", "soluble on expression in E. coli": "not soluble"}, {"sequence": "MLKKRFYILLFFCLLLGGNVNSSTVDKGDNNAPFENKRTETDYLPIADPFVMLYNNKYYAYGTGGTVNEGFACFSSDDLKNWKRERQALSADDSYGKWGFWAPEVYYIQSKKKFYMFYSVEEHICVATSDSPVGPFRQESKQPIWEEKSIDTSLFIDDDGTPYLYFVRFTDGNVIWVAQMTDDLMKIKKETLSECIKAEEPWELLQAKVAEGPSVLKKKGMYYLIYSANHYQNKGYGVGYATSKSPMGPWTKYDKNPLLQGDESTGLVGTGHGAPFQCKDGSWKYIFHAHWNKEKIHPRTSYFKDFTISKQGVVSITGKVIKPKVIK", "soluble on expression in E. coli": "not soluble"}, {"sequence": "MLKYMLDTNIAIYVIKRRPIEVLVTFNRYADMMCVSAVTEAELLHGAEKSRQREHNLRQVADFLSRLEVLSYTSKAAGHYGDIRADLERKEKPIGVNDLHIAAHARSEGFILVSNNLREFERVDGLRLENWIT", "soluble on expression in E. coli": "not soluble"}, {"sequence": "MLLEAIFHEAKGSYAYPISETQLRVRLRAKKGDVVRCEVLYADRYASPEEELAHALAGKAGSDERFDYFEALLECSTKRVKYVFLLTGPQGEAVYFGETGFSAERSKAGVFQYAYIHRSEVFTTPEWAKEAVIYQIFPERFANGDPSNDPPGTEQWAKDARPRHDSFYGGDLKGVIDRLPYLEELGVTALYFTPIFASPSHHKYDTADYLAIDPQFGDLPTFRRLVDEAHRRGIKIILDAVFNHAGDQFFAFRDVLQKGEQSRYKDWFFIEDFPVSKTSRTNYETFAVQVPAMPKLRTENPEVKEYLFDVARFWMEQGIDGWRLDVANEVDHAFWREFRRLVKSLNPDALIVGAIWHDASGWLMGDQFDSVMNYLFRESVIRFFATGEIHAERFDAELTRARMLYPEQAAQGLWNLLDSHDTERFLTSCGGNEAKFRLAVLFQMTYLGTPLIYYGDEIGMAGATDPDCRRPMIWEEKEQNRGLFEFYKELIRLRHRLASLTRGNVRSWHADKQANLYAFVRTVQDQHVGVVLNNRGEKQTVLLQVPESGGKTWLDCLTGEEVHGKQGQLKLTLRPYQGMILWNGR", "soluble on expression in E. coli": "soluble"}, {"sequence": "MLLLTPGPTPIPERVQKALLRPMRGHLDPEVLRVNRAIQERLAALFDPGEGALVAALAGSGSLGMEAGLANLDRGPVLVLVNGAFSQRVAEMAALHGLDPEVLDFPPGEPVDPEAVARALKRRRYRMVALVHGETSTGVLNPAEAIGALAKEAGALFFLDAVTTLGMLPFSMRAMGVDYAFTGSQKCLSAPPGLAPIAASLEARKAFTGKRGWYLDLARVAEHWERGGYHHTTPVLLHYALLEALDLVLEEGVAARERRAREVYAWVLEELKARGFRPYPKASPLPTVLVVRPPEGVDADRLVRALYAEGVAVAGGIGPTRGQVLRLGLMGEGARREAYQAFLKALDRALALA", "soluble on expression in E. coli": "soluble"}, {"sequence": "MLLSTKSKKLIRTQYFTTPGILMRGRSHPVGDFKVQNKNPHFNDISVGKRIRYRRKMLGLSQKQLGHSLGVTFQQIQKYEKGINRVGAGRLQEIATLLDVSISFFYADISTKEHVSYPRNKGISNKEEDFLLKSFRELKPKKQKAILCLLSD", "soluble on expression in E. coli": "not soluble"}, {"sequence": "MLNTTFANAKFANPFMNASGVHCMTIEDLEELKASQAGAYITKSSTLEKREGNPLPRYVDLELGSINSMGLPNLGFDYYLDYVLKNQKENAQEGPIFFSIAGMSAAENIAMLKKIQESDFSGITELNLSCPNVPGKPQLAYDFEATEKLLKEVFTFFTKPLGVKLPPYFDLVHFDIMAEILNQFPLTYVNSVNSIGNGLFIDPEAESVVIKPKDGFGGIGGAYIKPTALANVRAFYTRLKPEIQIIGTGGIETGQDAFEHLLCGATMLQIGTALHKEGPAIFDRIIKELEEIMNQKGYQSIADFHGKLKSL", "soluble on expression in E. coli": "soluble"}, {"sequence": "MLPDSSVRLNKYISESGICSRREADRYIEQGNVFLNGKRATIGDQVKPGDIVKVNGQLIEPREAEDLVLIALNKPVGIVSTTEDGERDNIVDFVNHSKRVFPIGRLDKDSQGLIFLTNHGDLVNKILRAGNDHEKEYLVTVDKPITDEFIRGMGAGVPILGTVTKKCKVKKEAPFVFRITLVQGLNRQIRRMCEHFGYEVKKLERTRIMNVSLSGIPLGEWRDLTDDELIDLFKLIENSSSEAKPKAKAKPKTAGIKRPVVKMEKTAEKGGRPASNGKRFTSPGRKKKGR", "soluble on expression in E. coli": "not soluble"}, {"sequence": "MLPLPLIANGKGFIRALENDGALAVYAPLEGGYEGRYQRRLRANGYASISLSARGLGDVEAYLMQVHGVRPAHLGKKNIAQEGAVGPIYFAQPIAGYQLENLPAQSKGLVLWILEGYILSQTEIQDLISLTKRVPKLKVVLEMGGDRVFRWQPLLDCLQAALEHHHHHH", "soluble on expression in E. coli": "soluble"}, {"sequence": "MLPLSLLKTAQNHPMLVELKNGETYNGHLVSCDNWMNINLREVICTSRDGDKFWRMPECYIRGSTIKYLRIPDEIIDMVKEEVVAKGRGRGGLQQQKQQKGRGMGGAGRGVFGGRGRGGIPGTGRGQPEKKPGRQAGKQ", "soluble on expression in E. coli": "soluble"}, {"sequence": "MLPYMAYRYVKNKREKNQREMDSDLDSMVRSIVPDKTVICVPNVAAKLGEDSKEYIPGTLSIVEKSSGVFIEWKPSEDAETSWVMTSDDGNTEMVHARSPEEKQKCGARVAFSMDVNDLSSFRNDEPKRGSGGFPSIRLICRDGSSQVPLFFKNTTTAEFLDRLQGYITLRRSHRDSHLVIVVDQKSEALAKSVSMLDENGDILSRFMQNPYMTAMTGFSKITSFVQDQVIPSVLNDTDAVTQEEKIRLMRELRLAEEQMRVHSDAAGEFEVVTQLELPPRPEIYRELPVSKDLWNSFKLSNGSYDPMKLHHLKMNVFRGGLNAELRKEAWKCLLGYRQWHESDTDFQTRRAELAKQYENMKKQWMSVTEDQEKRFTKFVKRKSLVGEEIEND", "soluble on expression in E. coli": "not soluble"}]}]}
